Measured values as given in article PMC3230775 (Nature structural & molecular biology, 2011).
Each block holds one molecule with its values, some of them ahead of it.

Experiments:
[1] = molecular target: p130Cas C-terminal domain (residues 645-870) (human) (UniProt P56945); experiment: crystal structure
[2] = molecular target: T1, BCAR3 C-terminal domain (residues 502-825) (human, UniProt O75815 502-825); experiment: ITC
T1 sequence: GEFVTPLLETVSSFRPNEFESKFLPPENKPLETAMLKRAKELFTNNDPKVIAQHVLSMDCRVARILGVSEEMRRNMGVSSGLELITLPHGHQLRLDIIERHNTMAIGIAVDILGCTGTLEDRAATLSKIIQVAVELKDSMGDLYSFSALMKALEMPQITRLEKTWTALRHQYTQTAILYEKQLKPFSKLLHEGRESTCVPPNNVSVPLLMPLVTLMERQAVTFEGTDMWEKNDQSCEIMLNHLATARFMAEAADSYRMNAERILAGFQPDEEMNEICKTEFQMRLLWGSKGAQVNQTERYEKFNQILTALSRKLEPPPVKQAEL

stoichiometry N [1]: 1
Molecule: NSP3 C-terminal domain (residues 382-703) (domain or fragment)

Kd [2]: 30 nM
B1: p130Cas C-terminal domain (residues 645-870) (domain or fragment)
chain: SQDSPDGQYENSEGGWMEDYDYVHLQGKEEFEKTQKELLEKGSITRQGKSQLELQQLKQFERLEQEVSRPIDHDLANWTPAQPLAPGRTGGLGPSDRQLLLFYLEQCEANLTTLTNAVDAFFTAVATNQPPKIFVAHSKFVILSAHKLVFIGDTLSRQAKAADVRSQVTHYSNLLCDLLRGIVATTKAAALQYPSPSAAQDMVERVKELGHSTQQFRRVLGQLAAA
